Measurements taken from the RNAGym collection of RNA variant scans (doi:10.1073/pnas.2313332121).
Fewer inactive variants are shown than the library holds.

B1: TPR 5TU (parent)
chain: GGAUCUUCUCGAUCUAACAAAAAAGACAAAUCUGCCACAAAGCUUGAGAGCAUCUUCGGAUGCAGAGGCGGCAGCCUUCGGUGGCGCGAUAGCGCCAACGUUCUCAACUAUGACACGCAAAACGCGUGCUCCGUUGAAUGGAGUUUAUCAUG

Variants of: B1
Test: polymerase ribozyme fitness, log enrichment relative to wild type (log ratio); higher = more active; in vitro selection for triplet polymerase activity
How it was run: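 Fitness measures genotype enrichment against wild-type enrichment on a logarithmic scale, with inverse-variance-weighted averaging of replicates. The logarithm is base 2, and genotypes were kept only with ≥10 input reads and ≥1 read per output in Illumina sequencing. The sequenced libraries came from one triplicate in vitro selection round, including frozen incubation at −7 °C, of PCR-built, transcribed mutant libraries of each subunit of a heterodimeric triplet polymerase ribozyme.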

Row | Variant | polymerase ribozyme fitness (log ratio)
1 | C36U G46A G70A G83C A120U G133C | -3.23
2 | C38A G58A C95G G124C C125U | -1.11
3 | A37G C114U | -2.87
4 | C38U A97G | -0.0867
5 | C38G C96G | -0.167
6 | C36A A91U U145C | ≤ -4.2
7 | C38A C69G C93U U139A | ≤ -4.2
8 | C35U C105G G126A | -2.32
9 | C38U A89C C93U G124C | -2.94
10 | C36U A98U | -1.07
11 | C36A C95U U104A C118G | ≤ -4.2
12 | C35U C85G A98U A115G C132A U135A | ≤ -4.2
13 | C38G U55G C76A G141A | ≤ -4.2
14 | C36U A106G C114G | -3.87
15 | C35U U56A | 0.225
16 | C35U U77C G88A G124U | ≤ -4.2
17 | A37G A47C G83U | -4.12
18 | C35U G86A | -1.37
19 | A37U A47G U53A G92C A106U A137G G141U | ≤ -4.2
20 | C38G G92A | -4.14
21 | A37G G136A U146C | -1.88

Row | Variant | polymerase ribozyme fitness (log ratio)
22 | C38U C54A U82C U134G | -3.4
23 | C36A C57U C63A G86A A147G | ≤ -4.2
24 | A37U G71A C125A | ≤ -4.2
25 | C36U A97U U130C | -1.25
26 | C35G G83C | -4.19
27 | C36U U56A C79G U90G A106G C125U | ≤ -4.2
28 | C36U A49C C95A U145C | ≤ -4.2
29 | C36A G74C | ≤ -4.2
30 | C35U U45G G58A U61G C76U C85A C93G U104A A107C G152A | ≤ -4.2
31 | C35U C95U | -1.1
32 | C38U A52C U55G U56A A120C A121C | -2.04
33 | C36U C108U | ≤ -4.2
34 | C36G G92C A121C C125A | ≤ -4.2
35 | A37C C87U A119U G128C | -3.46
36 | C35U C114U | -2.28
37 | C35U C114A | -3.87
38 | A37G G84U | -3.14
39 | C36U U61A C96G G133A | -3.93
40 | A37G G58U A89G | -2.84
41 | C36A A60G G143A | ≤ -4.2
42 | C35U C54A G58C | -1.17

Row | Variant | polymerase ribozyme fitness (log ratio)
43 | C38A U55C A66G G80A U90A U127C | ≤ -4.2
44 | C38U A60U A89U | -0.823
45 | C36U U61G U82G C85U | -3.95
46 | A37U G81A U101C U111A U148G | ≤ -4.2
47 | C36G A40C G42C C54U G68A C118G C131A U135G C149A | ≤ -4.2
48 | C35U C95U G126A | -1.49
49 | C35U G81C C85G | -1.5
50 | C35U C54A U55A G80C C108U U127A | ≤ -4.2
51 | A37G C54U C131U | -1.58
52 | C38A G80A G94A A97G C99G C131U G133C | ≤ -4.2
53 | C36U C114U C131A | ≤ -4.2
54 | C38U A47C U102C A119U | -3.66
55 | C35U C57G G65U U144C | -4.2
56 | C36G C95A C103U U134A A138C | ≤ -4.2
57 | C36U G92C G100U G117A A122G | ≤ -4.2
58 | C36A C116A | -3.76
59 | C35U C114U U139A | ≤ -4.2
60 | C38A U146G | -1.37
61 | C36A U56A U77G C87U U102A A119C | ≤ -4.2
62 | C35U C85G | -2.73
63 | C35G U55C G68U A91G G126A | ≤ -4.2

Row | Variant | polymerase ribozyme fitness (log ratio)
64 | A37C C72U G88C A89U A138U U145G | ≤ -4.2
65 | C36A C43G | ≤ -4.2
66 | C36U U56G U61A | ≤ -4.2
67 | C35U A64U C116A G140C | -3.97
68 | C38U A66G | ≤ -4.2
69 | C35U A60G U102C C116A | -3.97
70 | C35U G124A | -0.554
71 | A37C A41C U53A U56G G59A C79U C87A A113U U134A | ≤ -4.2
72 | A37U A41U A89G A115C A150U | ≤ -4.2
73 | C38A A64C G88C | ≤ -4.2
74 | A37U G81U C85U A137C | ≤ -4.2
75 | C35G U55A A60C C75G C114G A119U | ≤ -4.2
76 | C36A U82C C93U U135G | ≤ -4.2
77 | A37C C51A G92U A106C | ≤ -4.2
78 | C35U C87U | -0.746
79 | C35G G70A C87G U109C | ≤ -4.2
80 | A37C U44A C87A G94A U134G G141U | ≤ -4.2
81 | A37G A66U | ≤ -4.2
82 | C38G U53A C85U U135A | -1.98
83 | A37U G84A C118U A122U | -1.57
